Consider one molecule from patent US20190177382A1 (US Dept. of Health and Human Services, published 2019).

For the experiment, the target named is T1, KDR ectodomain-IgG fusion protein (UniProt P35968 20-764, limits assumed).
T1 construct: extracellular domain; also called KDR-Ig ectodomain; not shown: IgG portion of the fusion
Nature of the experiment: electrochemiluminescent saturation binding; VEGF captured by a non-neutralizing anti-VEGF mAb, KDR-Ig ectodomain titrated, detected with tagged anti-KDR.

T1 sequence (P35968 20-764 limits assumed): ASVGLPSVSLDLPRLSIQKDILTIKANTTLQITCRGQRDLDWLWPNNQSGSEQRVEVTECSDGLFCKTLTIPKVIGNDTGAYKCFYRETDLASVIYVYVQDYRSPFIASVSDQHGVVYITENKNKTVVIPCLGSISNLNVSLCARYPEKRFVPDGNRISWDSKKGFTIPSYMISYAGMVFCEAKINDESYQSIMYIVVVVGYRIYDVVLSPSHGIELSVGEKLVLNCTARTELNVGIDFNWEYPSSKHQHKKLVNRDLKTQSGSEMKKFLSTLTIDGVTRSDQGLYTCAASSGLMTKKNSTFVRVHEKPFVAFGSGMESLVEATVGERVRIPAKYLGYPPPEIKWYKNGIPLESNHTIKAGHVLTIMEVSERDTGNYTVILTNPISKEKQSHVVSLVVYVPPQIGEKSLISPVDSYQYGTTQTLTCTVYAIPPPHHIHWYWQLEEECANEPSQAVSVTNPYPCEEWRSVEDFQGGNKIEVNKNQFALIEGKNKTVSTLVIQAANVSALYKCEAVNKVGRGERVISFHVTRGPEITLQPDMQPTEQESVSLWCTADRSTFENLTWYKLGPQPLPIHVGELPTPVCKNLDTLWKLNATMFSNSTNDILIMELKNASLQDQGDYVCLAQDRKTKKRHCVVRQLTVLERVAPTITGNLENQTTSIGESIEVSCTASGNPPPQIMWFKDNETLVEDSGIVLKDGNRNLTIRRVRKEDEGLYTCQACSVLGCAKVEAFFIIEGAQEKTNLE

B1: VEGF165 3S (human VEGF165 R123E/R124E/R159E) (ligand)
chain: APMAEGGGQNHHEVVKFMDVYQRSYCHPIETLVDIFQEYPDEIEYIFKPSCVPLMRCGGCCNDEGLECVPTEESNITMQIMRIKPHQGQHIGEMSFLQHNKCECRPKKDRARQENPCGPCSEEEKHLFVQDPQTCKCSCKNTDSRCKARQLELNERTCECDKPRR
notes: Secreted into conditioned media by 293/KDR transfectants, made with the native signal peptide; also called VEGF 3S
What is called Kd is the free concentration of one partner at which half of the binding sites on the other are occupied at equilibrium, for simple one-to-one binding. A low value points to a tighter complex. Consider B1, for which the Kd was approximately 0.019 nM.
